What was measured:
[1] = molecular target: T1, chromogranin A (CgA) (Homo sapiens, UniProt P10645 P10645:19-457); assay: capillary electrophoresis specificity control; conditions: tags: N-terminal His-tag; full length, Creative BioMart CHGA-26904TH; label: 5' TYE665
T1 sequence: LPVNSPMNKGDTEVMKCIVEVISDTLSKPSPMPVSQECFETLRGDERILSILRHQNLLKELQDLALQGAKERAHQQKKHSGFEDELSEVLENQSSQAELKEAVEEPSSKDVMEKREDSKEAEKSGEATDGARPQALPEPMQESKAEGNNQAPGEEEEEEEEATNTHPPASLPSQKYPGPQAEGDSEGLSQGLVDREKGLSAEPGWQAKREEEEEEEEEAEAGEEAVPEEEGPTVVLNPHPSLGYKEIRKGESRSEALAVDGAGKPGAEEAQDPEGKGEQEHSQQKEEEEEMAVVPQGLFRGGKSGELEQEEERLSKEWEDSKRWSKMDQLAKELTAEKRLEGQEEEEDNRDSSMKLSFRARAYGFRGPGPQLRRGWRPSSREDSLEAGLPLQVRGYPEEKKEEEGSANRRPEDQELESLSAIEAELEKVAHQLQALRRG
Procedure: (§1) Reaction solutions containing the labeled aptamer (SEQ ID NO: 1) were prepared. Each of the reaction solutions was subjected to CAE under the following conditions. The reaction solution was caused to migrate while separating the components therefrom, and the fluorescence at a maximum absorption wavelength (665 nm) of the fluorescent substance was measured. As the reaction solutions, the following four types of reaction solutions were used: a reaction solution 1 containing the labeled aptamer only; a reaction solution 2 containing the labeled aptamer and the α-amylase; a reaction solution 3 containing the labeled aptamer and the saliva; and a reaction solution 4 containing the labeled aptamer as the negative control and the saliva. In each of the reaction solutions, the concentration of the labeled aptamer was 200 nmol/L. In the reaction solution 2, the concentration of the α-amylase was 2 μmol/L. In the reaction solutions 3 and 4, the concentration of the saliva was 10%. The reminder of each of the reaction solutions was a buffer solution. The composition of the buffer solution was as follows: 40 mmol/L HEPES (pH 7.5), 125 mmol/L NaCl, 5 mmol/L KCl, and 1 mmol/L MgCl₂.
(§2) Preparation of the reaction solution 2 and the binding ability analysis by CAE were carried out in the same manner as in the above item (3), except that the labeled aptamers (SEQ ID NOs: 1, 2, 3, and 19) were used. Further, in order to examine the specificity of the labeled aptamers to the α-amylase, the binding ability analysis by CAE was performed in the same manner as in the case where the above-described reaction solution 2 was used, except that, instead of the α-amylase, human chromogranin A (CgA, recombinant full length protein, Creative BioMart, #CHGA-26904TH) or human IgA (secretory, Biomedicals, LLC-Cappel Products, #55905), each having a His-tag fused at the N terminus were used.

[2] = molecular target: T2, alpha-amylase (Homo sapiens, UniProt P0DUB6 P0DUB6:16-511); assay: capillary electrophoresis; 200 nM aptamer, 2 uM amylase, 1 mM MgCl2; conditions: tags: none stated; commercial human alpha-amylase, Lee Biosolutions; label: 5' TYE665
T2 sequence: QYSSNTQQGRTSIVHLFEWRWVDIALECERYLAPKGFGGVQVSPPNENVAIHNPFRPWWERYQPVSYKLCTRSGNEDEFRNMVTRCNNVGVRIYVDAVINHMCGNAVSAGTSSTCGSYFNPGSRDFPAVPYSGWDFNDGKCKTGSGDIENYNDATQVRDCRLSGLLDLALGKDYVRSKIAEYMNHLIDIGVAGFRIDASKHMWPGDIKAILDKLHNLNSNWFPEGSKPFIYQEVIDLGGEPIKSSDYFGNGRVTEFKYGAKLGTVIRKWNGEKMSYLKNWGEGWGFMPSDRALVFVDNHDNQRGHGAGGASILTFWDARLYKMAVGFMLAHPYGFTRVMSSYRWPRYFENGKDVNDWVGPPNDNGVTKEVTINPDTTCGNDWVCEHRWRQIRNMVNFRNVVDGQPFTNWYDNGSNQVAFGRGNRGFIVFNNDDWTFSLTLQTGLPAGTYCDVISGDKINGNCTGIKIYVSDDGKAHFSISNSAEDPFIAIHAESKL
Procedure: as §1, §2

[3] = molecular target: T2, alpha-amylase; assay: SPR; SPR buffer with 1 mM MgCl2, pH 7.4; Chi2 17.73; conditions: tags: none stated; commercial human alpha-amylase, Lee Biosolutions; label: 3' poly(dA)20 captured on biotin-poly(dT)20
Procedure: (§3) Biotinylated poly(dT) at 5 μmol/L was injected to a flow cell of the sensor chip using ultrapure water (DDW), and the binding was allowed to proceed until the signal intensity (RU: Resonance Unit) reached about 900 RU. The biotinylated poly(dT) was prepared by biotinylating the 5′ end of 20-mer deoxythymidine. Then, the poly(dA)-added aptamer at 200 nmol/L was injected to the flow cell of the chip using an SPR buffer at a flow rate of 25 μL/min for 80 seconds, and the binding was allowed to proceed until the signal intensity reached about 800 RU. […] With 0 seconds being the start of the injection, the mean value of signal intensities from 115 seconds to 125 seconds was determined. […] Then, the value (B/A) obtained by dividing the protein binding measured value (B) by the aptamer immobilization measured value (A) was determined as a relative value (Relative Unit).
(§4) The binding ability of the aptamers was analyzed by SPR in the same manner as in Example 1, except that the concentration of the α-amylase in the specimen was set to a plurality of values. The concentration was set to 20 nmol/L, 10 nmol/L, 5 nmol/L, 2.5 nmol/L, and 1.25 nmol/L. Then, from the results obtained by the SPR analysis, the kinetic parameter and the chi-squared value were calculated.

[4] = molecular target: T2, alpha-amylase; assay: SPR; 400 nM amylase, 1 mM MgCl2, pH 7.4; conditions: tags: none stated; commercial human alpha-amylase, Lee Biosolutions; label: 3' poly(dA)20 captured on biotin-poly(dT)20
Procedure: The analysis of the binding ability was carried out using a ProteON XPR36 (BioRad) in accordance with its instructions for use.
First, as a sensor chip designed specifically for the ProteON, a streptavidin-immobilized chip (trade name: ProteOn NLC Sensor Chip, BioRad) was set in the ProteON XPR36. Biotinylated poly(dT) at 5 μmol/L was injected to a flow cell of the sensor chip using ultrapure water (DDW), and the binding was allowed to proceed until the signal intensity (RU: Resonance Unit) reached about 900 RU. The biotinylated poly(dT) was prepared by biotinylating the 5′ end of 20-mer deoxythymidine. Then, the poly(dA)-added aptamer at 200 nmol/L was injected to the flow cell of the chip using an SPR buffer at a flow rate of 25 μL/min for 80 seconds, and the binding was allowed to proceed until the signal intensity reached about 800 RU. […] Subsequently, the specimen was injected using the SPR buffer at a flow rate of 50 μL/min for 120 seconds, followed by washing performed by flowing the SPR buffer under the same conditions for 300 seconds. The concentration of the human α-amylase in the specimen was set to 400 nmol/L. Signal intensity measurement was performed concurrently with the injection of the specimen and the washing with the SPR buffer. With 0 seconds being the start of the injection, the mean value of signal intensities from 115 seconds to 125 seconds was determined. […] Then, the value (B/A) obtained by dividing the protein binding measured value (B) by the aptamer immobilization measured value (A) was determined as a relative value (Relative Unit).

[5] = molecular target: T2, alpha-amylase; assay: SPR; SPR buffer with 1 mM MgCl2, pH 7.4; Chi2 18.8; conditions: tags: none stated; commercial human alpha-amylase, Lee Biosolutions; label: 3' poly(dA)20 captured on biotin-poly(dT)20
Procedure: as §3, §4

[6] = molecular target: T2, alpha-amylase; assay: SPR; SPR buffer with 1 mM MgCl2, pH 7.4; Chi2 29.33; conditions: tags: none stated; commercial human alpha-amylase, Lee Biosolutions; label: 3' poly(dA)20 captured on biotin-poly(dT)20
Procedure: as §3, §4

[7] = molecular target: T2, alpha-amylase; assay: SPR; SPR buffer with 1 mM MgCl2, pH 7.4; Chi2 5.18; conditions: tags: none stated; commercial human alpha-amylase, Lee Biosolutions; label: 3' poly(dA)20 captured on biotin-poly(dT)20
Procedure: as §3, §4

[8] = molecular target: T2, alpha-amylase; assay: SPR; SPR buffer with 1 mM MgCl2, pH 7.4; Chi2 23.63; conditions: tags: none stated; commercial human alpha-amylase, Lee Biosolutions; label: 3' poly(dA)20 captured on biotin-poly(dT)20
Procedure: as §3, §4

[9] = molecular target: T2, alpha-amylase; assay: SPR; 40 mM HEPES pH 7.4, 125 mM NaCl, 5 mM KCl, 1 mM MgCl2, 0.01% Tween 20; Chi2 2.68; conditions: tags: none stated; commercial human alpha-amylase, Lee Biosolutions; label: 3' poly(dA)20 captured on biotin-poly(dT)20
Procedure: as §3, §4

[10] = molecular target: T2, alpha-amylase; assay: SPR; SPR buffer with 1 mM MgCl2, pH 7.4; Chi2 24.85; conditions: tags: none stated; commercial human alpha-amylase, Lee Biosolutions; label: 3' poly(dA)20 captured on biotin-poly(dT)20
Procedure: as §3, §4

[11] = molecular target: T2, alpha-amylase; assay: SPR; SPR buffer with 1 mM MgCl2, pH 7.4; Chi2 5.69; conditions: tags: none stated; commercial human alpha-amylase, Lee Biosolutions; label: 3' poly(dA)20 captured on biotin-poly(dT)20
Procedure: as §3, §4

B1: TYE665-AML1243KR8m2 (ssDNA)
DNA: GGATACCTTAACGCCGCCTATTGCTATGAGTAGTGTTTGTAGGTCTGGCATGCGAGTTGCACCCGTCTCGAAATC
modifications: KS9 modified T (formula 1) at underlined T, i.e. T 3' of the 5' primer region
binding result [1]: no binding | binding result [2]: binds

B2: AML1243KR8m2s63 (ssDNA)
DNA: GGATACCTTAACGCCGCCTATTGCTATGAGTAGTGTTTGTAGGTCTGGCATGCGAGTTGCACCAAAAAAAAAAAAAAAAAAAA
modifications: KS9 modified T (formula 1) at underlined T, i.e. T 3' of the 5' primer region
Kd [3]: 3.93 nM

B3: AML2243KR8m3 (ssDNA)
DNA: GGATACCTTAACGCCGCCTATTGGTGTCACTAGTGTTTGTCGGTGCCAGCAAGGAGTTGCACCCGTCTCGAAATCAAAAAAAAAAAAAAAAAAAA
modifications: KS9 modified T (formula 1) at underlined T, i.e. T 3' of the 5' primer region
binding result [4]: binds

B4: AML1243KR8m2s49 (ssDNA)
DNA: GGATACCTTAACGCCGCCTATTGCTATGAGTAGTGTTTGTAGGTCTGGCAAAAAAAAAAAAAAAAAAAA
modifications: KS9 modified T (formula 1) at underlined T, i.e. T 3' of the 5' primer region
Kd [5]: 3.19 nM

B5: AML1243KR8m3s63Fw_s20 (ssDNA)
DNA: TACCTTAACGCCGCCTATTGCGAGGTGTGGCTAGTCGTTATAGGTCCACCGAGTTGCACCAAAAAAAAAAAAAAAAAAAA
modifications: KS9 modified T (formula 1) at underlined T, i.e. T 3' of the 5' primer region
Kd [6]: 16.6 nM

B6: AML1243KR8m1s65_FW_s15 (ssDNA)
DNA: TAACGCCGCCTATTGTGAACGACGTGAATAGTGTTTGTGGGTCCGGAGTTGCACCCGAAAAAAAAAAAAAAAAAAAA
modifications: KS9 modified T (formula 1) at underlined T, i.e. T 3' of the 5' primer region
Kd [7]: 0.447 nM

B7: AML1243KR8m3s63 (ssDNA)
DNA: GGATACCTTAACGCCGCCTATTGCGAGGTGTGGCTAGTCGTTATAGGTCCACCGAGTTGCACCAAAAAAAAAAAAAAAAAAAA
modifications: KS9 modified T (formula 1) at underlined T, i.e. T 3' of the 5' primer region
Kd [8]: 16.4 nM

B8: AML1243KR8m5 (ssDNA)
DNA: GGATACCTTAACGCCGCCTATTGAGTTCAACAATGACTAGTGTTTGTCGGTCTGAGTTGCACCCGTCTCGAAATCAAAAAAAAAAAAAAAAAAAA
modifications: KS9 modified T (formula 1) at underlined T, i.e. T 3' of the 5' primer region
binding result [4]: binds

B9: TYE665-AML1243KR8m3 (ssDNA)
DNA: GGATACCTTAACGCCGCCTATTGCGAGGTGTGGCTAGTCGTTATAGGTCCACCGAGTTGCACCCGTCTCGAAATC
modifications: KS9 modified T (formula 1) at underlined T, i.e. T 3' of the 5' primer region
binding result [1]: no binding | binding result [2]: binds

B10: AML1243KR8m4 (ssDNA)
DNA: GGATACCTTAACGCCGCCTATTGATTCTCTGTGACTAGTGTTTGTAGGTCGCAGAGTTGCACCCGTCTCGAAATCAAAAAAAAAAAAAAAAAAAA
modifications: KS9 modified T (formula 1) at underlined T, i.e. T 3' of the 5' primer region
binding result [4]: binds

B11: AML1243KR8m1s58_FW_s15 (ssDNA)
DNA: TAACGCCGCCTATTGTGAACGACGTGAATAGTGTTTGTGGGTCCGGAGTTAAAAAAAAAAAAAAAAAAAA
modifications: KS9 modified T (formula 1) at underlined T, i.e. T 3' of the 5' primer region
Kd [9]: 0.358 nM

B12: Amy_258KK10R8m3 (ssDNA)
DNA: GGTTACGCCCAGGACACATTTCAGAGCGTAAACAGTCCTGGTTGGCAAATGTGTAAGCTCGGTCTCCTCGGATAATCAAAAAAAAAAAAAAAAAAAA
modifications: KK10 modified T (formula 2) at double-underlined T, i.e. T 3' of the 5' primer region
binding result [4]: binds

B13: AML1243KR8m2s49Fw_s20 (ssDNA)
DNA: TACCTTAACGCCGCCTATTGCTATGAGTAGTGTTTGTAGGTCTGGCAAAAAAAAAAAAAAAAAAAA
modifications: KS9 modified T (formula 1) at underlined T, i.e. T 3' of the 5' primer region
Kd [10]: 4.23 nM

B14: TYE665-Amy_258KK10R8m2 (ssDNA)
DNA: GGTTACGCCCAGGACACATTTCATTGATGGCATACTAAGGGTCGAGGAATTCGTAAGCTCGGTCTCCTCGGATAATC
modifications: KK10 modified T (formula 2) at double-underlined T, i.e. T 3' of the 5' primer region
binding result [1]: no binding | binding result [2]: binds

B15: Amy_258KK10R8m4 (ssDNA)
DNA: GGTTACGCCCAGGACACATTTCTGTAGTGAAGTCCTGGTTGGCAAATTCATGGTAAGCTCGGTCTCCTCGGATAATCAAAAAAAAAAAAAAAAAAAA
modifications: KK10 modified T (formula 2) at double-underlined T, i.e. T 3' of the 5' primer region
Kd [11]: 7.34 nM
